Measured values taken from patent US20090148461A1 (Kyowa Kirin, published 2009).

Biological target: T1, full length human FGF23 protein (amino acid 25 to amino acid 251 of SEQ ID NO: 4) (human, UniProt Q9GZV9 25-251)
T1 construct: also called full length FGF23; human full length FGF23 protein
T1 sequence: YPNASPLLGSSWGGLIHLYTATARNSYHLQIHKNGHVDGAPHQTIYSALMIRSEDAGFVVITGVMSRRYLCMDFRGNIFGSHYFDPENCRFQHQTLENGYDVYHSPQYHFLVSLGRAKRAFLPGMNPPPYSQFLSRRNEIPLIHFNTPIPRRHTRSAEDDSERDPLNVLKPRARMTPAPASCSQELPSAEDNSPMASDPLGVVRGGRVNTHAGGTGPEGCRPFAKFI
Test: ELISA screening of hybridoma supernatants

B1: C10 antibody (anti-FGF23 human monoclonal antibody produced by hybridoma C10, FERM BP-10772) (antibody, human IgG1, V domains shown)
VH: QVQLVQSGAEVKKPGASVKVSCKASGYTFTNHYMHWVRQAPGQGLEWMGIINPISGSTSNAQKFQGRVTMTRDTSTSTVYMELSSLRSEDTAVYYCARDIVDAFDFWGQGTMVTVSS
VL: AIQLTQSPSSLSASVGDRVTITCRASQGISSALVWYQQKPGKAPKLLIYDASSLESGVPSRFSGSGSGTDFTLTISSLQPEDFATYYCQQFNDYFTFGPGTKVDIK
notes: also called recombinant C10 antibody
B1: binds.
